From publication PMC3388944 come the findings set out here.

For this series, the target named is T1, GST-IE(1-1487) (immediate-early protein IEP, full length) (Equine herpesvirus 1, UniProt P17473 1-1487).
T1 sequence: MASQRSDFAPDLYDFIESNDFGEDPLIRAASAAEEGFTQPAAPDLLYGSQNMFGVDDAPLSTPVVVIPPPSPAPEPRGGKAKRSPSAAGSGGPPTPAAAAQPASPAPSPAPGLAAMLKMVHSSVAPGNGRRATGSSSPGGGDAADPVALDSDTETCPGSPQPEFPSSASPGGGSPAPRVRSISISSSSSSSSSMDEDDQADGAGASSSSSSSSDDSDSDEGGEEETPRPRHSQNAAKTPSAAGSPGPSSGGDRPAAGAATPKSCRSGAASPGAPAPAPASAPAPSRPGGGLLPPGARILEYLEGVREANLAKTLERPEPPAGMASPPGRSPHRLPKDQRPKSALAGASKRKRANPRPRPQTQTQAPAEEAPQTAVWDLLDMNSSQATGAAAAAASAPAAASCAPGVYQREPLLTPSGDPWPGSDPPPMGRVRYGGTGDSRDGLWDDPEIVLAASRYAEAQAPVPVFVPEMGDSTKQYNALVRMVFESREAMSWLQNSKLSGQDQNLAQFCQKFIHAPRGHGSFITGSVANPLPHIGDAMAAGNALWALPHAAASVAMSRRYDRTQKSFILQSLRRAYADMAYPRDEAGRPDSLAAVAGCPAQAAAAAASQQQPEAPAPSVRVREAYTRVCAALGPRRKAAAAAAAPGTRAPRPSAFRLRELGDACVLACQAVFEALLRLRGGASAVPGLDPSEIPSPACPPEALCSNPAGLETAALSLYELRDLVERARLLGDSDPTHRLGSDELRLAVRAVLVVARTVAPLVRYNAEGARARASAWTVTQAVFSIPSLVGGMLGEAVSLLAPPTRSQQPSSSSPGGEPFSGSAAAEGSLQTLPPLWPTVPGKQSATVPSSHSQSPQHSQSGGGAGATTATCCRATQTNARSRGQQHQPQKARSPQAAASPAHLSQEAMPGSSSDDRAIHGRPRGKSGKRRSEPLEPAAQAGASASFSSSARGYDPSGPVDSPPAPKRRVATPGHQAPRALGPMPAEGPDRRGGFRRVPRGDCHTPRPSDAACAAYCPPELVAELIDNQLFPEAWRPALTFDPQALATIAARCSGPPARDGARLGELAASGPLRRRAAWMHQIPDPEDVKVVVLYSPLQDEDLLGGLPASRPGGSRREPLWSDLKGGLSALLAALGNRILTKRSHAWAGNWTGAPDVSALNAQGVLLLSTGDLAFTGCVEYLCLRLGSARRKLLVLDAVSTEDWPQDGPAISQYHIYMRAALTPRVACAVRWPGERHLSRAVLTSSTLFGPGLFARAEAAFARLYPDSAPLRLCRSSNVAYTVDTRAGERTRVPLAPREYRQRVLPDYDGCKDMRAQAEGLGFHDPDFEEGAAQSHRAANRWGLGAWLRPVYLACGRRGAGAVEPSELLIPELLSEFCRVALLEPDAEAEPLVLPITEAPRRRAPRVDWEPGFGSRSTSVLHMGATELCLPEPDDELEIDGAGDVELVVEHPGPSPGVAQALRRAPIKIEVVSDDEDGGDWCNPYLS
As to the kind of experiment: EMSA.

B1: wtIEBS probe (IE promoter -16 to +22) (dsDNA)
DNA 1: TTGCTTACCCATCGTAGCATCGCGGACTAGAGAGCCTT
DNA 2: TTAAGGCTCTCTAGTCCGCGATGCTACGATGGGTAAGC
Consider B1, for which the binding result is given as “binds”.
